Measured values taken from the nanobody polyreactivity screen of Harvey et al. (2022).

Experiment: yeast display, Sf9 membrane polyspecificity reagent, FACS + sequencing; frameworks hold sequencing errors
Procedure, shortened: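 A nanobody's polyreactivity label depends on the gate it was sorted from. Yeast display cells were stained with 10% biotinylated, detergent-solubilized Sf9 membrane reagent for 1 hour at 4 °C, enriched on streptavidin microbeads and sorted by FACS. The low and high (top ~1%) gates were set on anti-HA fluorescence for expression and streptavidin fluorescence for reagent binding.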

Question: For “QVQLVESGGGLVQAGGSLRLSCAASGNTFKRYAMGRYRQAPGKERELVAAITWRGARTYYADSVKGRLTISRDNAKNTFYLQMNSLKPEDTAVYYCAADGYSGSGPYDYWGQGTQVTVSS”, which “polyreactivity (PSR sort gate)” value is on record?
Answer: high polyreactivity

Question: For “QVQLVESGGGLVQAGGSLRLSCAASGNTFLAYVMGWYRQAPGKEREFVAAISRRDGRTYYADSVKGRFTISRDNAKNTVYLQMNSLKPEDTAVYYCNAQRHFWHLYAPSSFDYWGQGTQVTVSS”, which “polyreactivity (PSR sort gate)” value is on record?
Answer: low polyreactivity

Question: Which “polyreactivity (PSR sort gate)” value does the source give for “QVQLVESGGGLVQAGGSLRLSCAASGNTFNIYAMGWYRQAPGKETEFVAAITVSDTSTYYADSVKGRFTISRDSAKNTVYLQMKSLKPEDTAVYYCNADWWGTYDYYYWGQGTHVTVSS” here?
Answer: low polyreactivity

Question: For “QVQLVESGGGLVQAGGSLRLSCAASGNTFNNNAMGWYRQAPGKERELVAITGDGGSTYYADSVKGRFTISRDNAKNTVYLQMNSLKPEDTAVYYCAADYLYRYQTMGYWGQGTQVTVSS”, which “polyreactivity (PSR sort gate)” value is on record?
Answer: low polyreactivity

Question: Which “polyreactivity (PSR sort gate)” value does the source give for “QVQLVESGGGLVQAGGSLRLSCAASGNTFPLNAMGWYRQAPGKERELVAAISSSGRTYYADSVKGRFTISRDNAKNTVYLQMNSLKPEDTAVFYCNAKWRERGVRMDYWGQGTQVTVSS” here?
Answer: high polyreactivity

Question: For “QVQLVESGGGLVQAGGSLRLSCAASGNTFPVSYTMGWYRQAPGKEREFVAVITSGGGRTYADSVKGRFTISRDTAKNTVYLQMNSLKPEDTAVYYCAVRPRVSSWKFRSRRYGYWGQGTRVTVSS”, which “polyreactivity (PSR sort gate)” value is on record?
Answer: high polyreactivity

Question: For “QVQLVESGGGLVQAGGSLRLSCAASGNTFQRYTMGWYRQAPGKERELVAAINSSGGSTFYADSVKGRFTISRDNAKNTVYLQMNSLKPEDTAVYYCAASWHTPTVYDEYYYWGQGTQVTVSS”, which “polyreactivity (PSR sort gate)” value is on record?
Answer: low polyreactivity

Question: For “QVQLVESGGGLVQAGGSLRLSCAASGNTFQYYAMGWYRQAPGKEREFVAAISRRGGSTYYADSVKGRFTISRDNAKNTVYLQMNSLKPEDTAVYYCNKVIVLSQSSYSFHYAYDYWGQGTQVTVSS”, which “polyreactivity (PSR sort gate)” value is on record?
Answer: high polyreactivity

Question: With “QVQLVESGGGLVQAGGSLRLSCAASGNTFRDYAMGWYRQAPGKERELVAAITSSGARTYYADSVKGRFTISRDNAKNTVYLQMISLKPEDTAVYYCAADWSGYYTYDYWGQGTQVTVSS” as the sequence, how does the “polyreactivity (PSR sort gate)” value read?
Answer: low polyreactivity

Question: With “QVQLVESGGGLVQAGGSLRLSCAASGNTFRHNTMGWYRQAPGKERELVSTNYADSVKGRFTISRDNAKNTVYLQMNSLKPEDTAVYYCNADGTFGYEYWGHGTQVTVSS” as the sequence, how does the “polyreactivity (PSR sort gate)” value read?
Answer: low polyreactivity

Question: Which “polyreactivity (PSR sort gate)” value does the source give for “QVQLVESGGGLVQAGGSLRLSCAASGNTFRINAMGWYRQAPGKERELVAAISRSTGRTYYADSVKGRFTISRDNAKNTVYLQMNSLKPEDTAVYYCAAGYTGQEHDYWGLGTQVTVSS” here?
Answer: high polyreactivity

Question: For “QVQLVESGGGLVQAGGSLRLSCAASGNTFRPYAMGWYRQAPGKERELVARIRYGGGSTYYADSVKGRFTISRDNAKNTVYLQMNSLKPEDTAVYYCAVYRDQYRNFYYWGLGTQVTVSS”, which “polyreactivity (PSR sort gate)” value is on record?
Answer: high polyreactivity

Question: Which “polyreactivity (PSR sort gate)” value does the source give for “QVQLVESGGGLVQAGGSLRLSCAASGNTFRRYAMGWYRQAPGKERELVAAITGGTRTYYADSVKGRFTISRDNAKNTVYLQMISLKPEDTAVYYCAARLTSRSYRYDYWGQGTQVTVSS” here?
Answer: high polyreactivity

Question: With “QVQLVESGGGLVQAGGSLRLSCAASGNTFRWYAMGWYRQAPGKEREFVADITVRGGSTYYADSVKGRFTISRDNAKNTVYLQMNSLKPEDTAVYYCASYHYYTYDYWGQGTQVTVSS” as the sequence, how does the “polyreactivity (PSR sort gate)” value read?
Answer: low polyreactivity

Question: With “QVQLVESGGGLVQAGGSLRLSCAASGNTFRWYAMGWYRQAPGKERELVAAITWSGGSTYYADSVKGRFTISRDNAKNPVYLQMNSLKPEDTAVYYCAARRWAGEYDYWGQGTQVTVSS” as the sequence, how does the “polyreactivity (PSR sort gate)” value read?
Answer: low polyreactivity

Question: With “QVQLVESGGGLVQAGGSLRLSCAASGNTFSQYAMGWSRQAPGKERELVATISKSSGSTSYADSVKGRFTISRDNAKNTVYLQMNSLKPEDTAVYYCNADSSDVYHHLGVLFFSTWYDYWGQGTQVTVSS” as the sequence, how does the “polyreactivity (PSR sort gate)” value read?
Answer: low polyreactivity

Question: With “QVQLVESGGGLVQAGGSLRLSCAASGNTFSVYTMGWYRQAPGKERELVAAITRGGDSTYYADSVKGRFTISRDNAKNTVYLQMNSLKPEDTAVYYCAADHDGPYAGYDSWGQGTQVTVSS” as the sequence, how does the “polyreactivity (PSR sort gate)” value read?
Answer: low polyreactivity

Question: With “QVQLVESGGGLVQAGGSLRLSCAASGNTFSYNAMGWYRQAPGKEKELVAGITWSGGSTYYADSVKGRFTISRDNAKNTVYLQMNSLKPEDTAVYYCAKGYGSGVVRSRWSKYGYWGQGTQVTVSS” as the sequence, how does the “polyreactivity (PSR sort gate)” value read?
Answer: high polyreactivity

Question: For “QVQLVESGGGLVQAGGSLRLSCAASGNTFTAYVMGWYRQAPGKERELVAGISGRGSSTYYADSVKGRFTISRDNAKNTVYLQMNSLKQEDTAVYYCAAVRTLRTWVYGRYDYWGQGTQVTVSS”, which “polyreactivity (PSR sort gate)” value is on record?
Answer: high polyreactivity

Question: Which “polyreactivity (PSR sort gate)” value does the source give for “QVQLVESGGGLVQAGGSLRLSCAASGNTFTKYAMGWYIQAPGKERELVAGITRGGSTNYADSVKGRFTISRDNAKNTVYLQMNSLKPEDTAVYYCNARPVYGSRFYSAVRMEYWGQGTPVTVSS” here?
Answer: low polyreactivity

Question: Which “polyreactivity (PSR sort gate)” value does the source give for “QVQLVESGGGLVQAGGSLRLSCAASGNTFTRNAMGWYRQAPGKERELVAAISYSGGSTYYADSVKGRFTISRDNAKNTVYLQMNSLKPEDTAVYYCATKYYDRFSPYRGDYWGQGTQVTVSS” here?
Answer: low polyreactivity

Question: With “QVQLVESGGGLVQAGGSLRLSCAASGNTFVFYAMGWYRQAPGKERELVAAIDTGGTTNYADSVKGRFTISRDNAKNTVYLQMNSLKPEDTAVYYCAKRRLYWSGQGWVRTYGYWGQGTQVTVSS” as the sequence, how does the “polyreactivity (PSR sort gate)” value read?
Answer: high polyreactivity

Question: With “QVQLVESGGGLVQAGGSLRLSCAASGNTFVFYTMGWSRQAPGKERELVAAITSSGVRTSYADSVKGRFSISRDNAKNTVYLQMNSLKPEDTAVYYCAASLRASPSFGYWGQGTQVTVSS” as the sequence, how does the “polyreactivity (PSR sort gate)” value read?
Answer: high polyreactivity

Question: With “QVQLVESGGGLVQAGGSLRLSCAASGNTFVGYTMGWYRHAPGKERELVAAISWNGGTTYYADSVKGRFTISRDNAKNTVYLQMNSLKPEDTAVYYCNTRWYTRRFDYWGQGTQVTVSS” as the sequence, how does the “polyreactivity (PSR sort gate)” value read?
Answer: high polyreactivity

Question: With “QVQLVESGGGLVQAGGSLRLSCAASGNTFVSNAMGWYRQAPGKERELVAAIDSGGSTNYADSVKGRFTISRDNAKNTVYLQMNRLKPEDTAVYYCNRTSVYYYYWGQGTQVTVSS” as the sequence, how does the “polyreactivity (PSR sort gate)” value read?
Answer: low polyreactivity

Question: With “QVQLVESGGGLVQAGGSLRLSCAASGNTFWDNAMGWYRQAPGKERELVAAIRWSTASTHYADSVKGRFTISRDNAKNTVYFPMNSLKPEDTAVYYCAATDYYYYRDKYYGYDNWGQGTQVTVSS” as the sequence, how does the “polyreactivity (PSR sort gate)” value read?
Answer: low polyreactivity

Question: With “QVQLVESGGGLVQAGGSLRLSCAASGNTFYANTMGWYRQARTERELVAAITSGTYADSVKGRFTISRDNAKNTVYLQMNSLKPEDTAVYYCAREESLYVTDPGPSKLDYWGQGTQVTVSS” as the sequence, how does the “polyreactivity (PSR sort gate)” value read?
Answer: low polyreactivity

Question: Which “polyreactivity (PSR sort gate)” value does the source give for “QVQLVESGGGLVQAGGSLRLSCAASGNTFYGYAMGWYRQAPGKDRELVASITLSGDSTYYADSVKGRFTISRDNAKNTVYLQMNSLKQEDTAVYYCAGVYTYPLGYYHYTYDYWGQGTQVTVSS” here?
Answer: low polyreactivity

Question: With “QVQLVESGGGLVQAGGSLRLSCAASGNTFYGYAMGWYRQAPGKERVLVATIDSGGSTNYADSVKGRFTISRDNAKNTVYFQMNSLKPEDTAVYYCAADGVWYYNDMDYWGQGTQVTVSS” as the sequence, how does the “polyreactivity (PSR sort gate)” value read?
Answer: low polyreactivity

Question: Which “polyreactivity (PSR sort gate)” value does the source give for “QVQLVESGGGLVQAGGSLRLSCAASGNTFYGYVMGWYRQAPGKERELVAAISWSGGRTYYADSVKGRFTISRDNAKNTVYLQMNSLKPEDTAVYYCAAVLLYYIYDYWGQGTQVTVSS” here?
Answer: low polyreactivity

Question: For “QVQLVESGGGLVQAGGSLRLSCAASGNTFYPNAMGWYRKAPGKERELVAAISSSGGSTYYADSVKGRFTISRDNAKNTVYLQMNSLKPEDTAVYYRAAEFDYPWSGEYYYWGQGTQVTVSS”, which “polyreactivity (PSR sort gate)” value is on record?
Answer: high polyreactivity

Question: With “QVQLVESGGGLVQAGGSLRLSCAASGNTFYWNAMGWYRQAPGKERELVAAITSSGGSTYYADSVKGRITISRDNAKNTVYLQMNSLKPEDTAVYYCNKDIERYVRIYDSWGQGTQVTVSS” as the sequence, how does the “polyreactivity (PSR sort gate)” value read?
Answer: low polyreactivity

Question: With “QVQLVESGGGLVQAGGSLRLSCAASGNTFYYYAMGWYRQAPGKERELVAAIRRSGGTTYYADSVKGRFTISRDNAKNTVYLQMNSLKPEDTAVYYCAARVYRSYANVEGNYWGQGTQVTVSS” as the sequence, how does the “polyreactivity (PSR sort gate)” value read?
Answer: high polyreactivity

Question: For “QVQLVESGGGLVQAGGSLRLSCAASGNTFYYYCMGWYRQAPGKERELVAAISSSGTSTYYADSVKGRFTISRDNAKNTVYLQMNSLKPEDTAVYYCARRTDRRTGPMYSWGQGTQVTVSS”, which “polyreactivity (PSR sort gate)” value is on record?
Answer: high polyreactivity

Question: Which “polyreactivity (PSR sort gate)” value does the source give for “QVQLVESGGGLVQAGGSLRLSCAASGNTIDSYAMGWYRQAPGKERELVAAISTSGGSTYYADSVKGRFTISRDNAKNTVYLQMNSLKPEDTAVYYCNATWTITYDYWGQGTQVTVSS” here?
Answer: low polyreactivity

Question: For “QVQLVESGGGLVQAGGSLRLSCAASGNTIIRYPMGWYRQAPGKERELVAAISYSGGRTYYADSVKGRFTISRDNAKNTVYLQMNSLKPEDTAVYYCNAASRYGGDYWGQGTQVTVSS”, which “polyreactivity (PSR sort gate)” value is on record?
Answer: high polyreactivity

Question: Which “polyreactivity (PSR sort gate)” value does the source give for “QVQLVESGGGLVQAGGSLRLSCAASGNTLDYYAMGWYRQAPGKEREVVEGIDDRTSTNYADSVKGRFTISRDNAKYTVYLQMNSLKPEDTAVYYCNADDGTVNYTSYYSPAVTYDSWGQGTQVTVSS” here?
Answer: low polyreactivity

Question: For “QVQLVESGGGLVQAGGSLRLSCAASGNTLGYYAMGWYRQAAGKARELVATICDDGTTYYADSVKGRFTISRDNAMNTVYLQMNSLSPEETAVYYCASVGSAQYSMDYWGDGTQVTVSS”, which “polyreactivity (PSR sort gate)” value is on record?
Answer: low polyreactivity

Question: Which “polyreactivity (PSR sort gate)” value does the source give for “QVQLVESGGGLVQAGGSLRLSCAASGNTLRYNVMGWYRQAPGKERELVAAISGGGSTSYTDSVKGRFTISRDNAKNTVYLQMNSLKPEDTAVYYCAKRSFVGGRGRDSDYWGQGTQVTVSS” here?
Answer: low polyreactivity

Question: Which “polyreactivity (PSR sort gate)” value does the source give for “QVQLVESGGGLVQAGGSLRLSCAASGNTVDGNAMGWYRPAPGKERELVAAINYSGASTYYADSVKGRFTISRDNAKNTVYLQINSLKPEDTAVYYCAADDYTASDRYWHDYWGQGTQVTVSS” here?
Answer: low polyreactivity

Question: Which “polyreactivity (PSR sort gate)” value does the source give for “QVQLVESGGGLVQAGGSLRLSCAASGNTYLYYGMGWYRQSPGKERDLVAAITQSGGTTYYADSVKGRFTISRDNAKNTVYLQLNSLKQEDTAVYYCAATRYYYYWYVYDDRGDYWGQGTQVTVSS” here?
Answer: low polyreactivity
